Source: article PMC6048123

Experiments:
[1] = target: FimH (lectin subdomain FimHL and pilin subdomain FimHP) of the self-complemented construct FimH-DS_( (E. coli) (UniProt P08191)); assay: single-molecule force spectroscopy (AFM, force-extension)
[2] = target: FimF domain, β-strand-complemented and oxidized, in the array polyprotein (I91)2-FimF-FimG-FimH-(I91)2 (E. coli) (UniProt P08189); assay: single-molecule force spectroscopy (AFM, force-ramp)
[3] = target: FimH (lectin and pilin subdomains), β-strand-complemented and oxidized, in the array polyprotein (I9 (E. coli) (UniProt P08191)); assay: as above
[4] = target: FimA domain of the self-complemented construct FimA-DS_(FimA), oxidized (FimAS-S), in the polyprotein (I91)2-FimA-(I91)2 (E. coli) (UniProt P04128); assay: single-molecule force spectroscopy (AFM, force-extension)
[5] = target: FimF domain of the self-complemented construct FimF-DS_(FimA), oxidized (FimFS-S), in the polyprotein (I91)2-FimF-(I91)2 (E. coli) (UniProt P08189); assay: as above
[6] = target: FimG domain of the self-complemented construct FimG-DS_(FimF), reduced (FimG_(SH-SH)), in the polyprotein (I91)2-FimG-(I91)2 (E. coli)
[7] = target: FimG domain of the self-complemented construct FimG-DS_(FimF), oxidized (FimGS-S), in the polyprotein (I91)2-FimG-(I91)2 (E. coli); assay: single-molecule force spectroscopy (AFM, force-extension)
[8] = target: FimG domain, β-strand-complemented and oxidized, in the array polyprotein (I91)2-FimF-FimG-FimH-(I91)2 (E. coli); assay: single-molecule force spectroscopy (AFM, force-ramp)
Sequence of FimG domain, β-strand-complemented and oxidized, in the array polyprotein (I91)2-FimF-FimG-FimH-(I91)2 (E. coli) (P08190 24-167): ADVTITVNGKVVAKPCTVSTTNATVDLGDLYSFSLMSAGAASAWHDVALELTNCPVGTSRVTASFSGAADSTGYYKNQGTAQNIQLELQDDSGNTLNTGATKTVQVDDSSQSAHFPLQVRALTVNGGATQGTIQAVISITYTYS

Sequence of UniProt P04128 (P04128 24-182): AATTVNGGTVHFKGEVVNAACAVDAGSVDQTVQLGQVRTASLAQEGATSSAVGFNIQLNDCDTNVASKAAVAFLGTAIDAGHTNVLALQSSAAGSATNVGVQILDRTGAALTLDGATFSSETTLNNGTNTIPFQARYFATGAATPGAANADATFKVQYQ
Sequence of FimG domain of the self-complemented construct FimG-DS_(FimF), oxidized (FimGS-S), in the polyprotein (I91)2-FimG-(I91)2 (E. coli) (P08190 24-167): as the sequence (P08190 24-167) above

Molecule: donor β-strand of FimG (DS_(FimG)) linked by DNKQ to the C-terminus of FimH in (I91)2-FimH-(I91)2 (from UniProt P08190) (peptide)
- rupture force of FimHP (rupture of the β-strand interaction) [1]: 362 pN

Molecule: donor β-strand of FimA complementing FimF in the array polyprotein (I91)2-FimF-FimG-FimH-(I91)2 (peptide)
- unfolding force in force-ramp (rupture of the β-strand interaction) [2]: 281 pN

Molecule: donor β-strand of FimG complementing FimH in the array polyprotein (I91)2-FimF-FimG-FimH-(I91)2 (from UniProt P08190) (peptide)
- unfolding force of FimHP in force-ramp (rupture of the β-strand interaction) [3]: 238 pN

Molecule: donor β-strand of FimA (DS_(FimA)) linked by DNKQ to the C-terminus of FimA in (I91)2-FimA-(I91)2 (from UniProt P04128) (peptide)
- unfolding force (rupture of the β-strand interaction) [4]: 527 pN

Molecule: donor β-strand of FimA (DS_(FimA)) linked by DNKQ to the C-terminus of FimF in (I91)2-FimF-(I91)2 (peptide)
- unfolding force (rupture of the β-strand interaction) [5]: 418 pN

B1: DsbA oxidoreductase (enzyme)
chain: AQYEDGKQYTTLEKPVAGAPQVLEFFSFFCPHCYQFEEVLHISDNVKKKLPEGVKMTKYHVNFMGGDLGKDLTQAWAVAMALGVEDKVTVPLFEGVQKTQTIRSASDIRDVFINAGIKGEEYDAAWNSFVVKSLVAQQEKAAADVQLRGVPAMFVNGKYQLNPQGMDTSNMDVFVQQYADTVKYLSEKK
- refolding probability of FimG in force-clamp AFM after 45 s at 0 pN, with DsbA (100 μM) against reduced FimG alone (around 20%) [6]: 70%

B2: donor β-strand of FimF (DS_(FimF)) linked by DNKQ to the C-terminus of FimG in (I91)2-FimG-(I91)2 (peptide)
chain: DNKQADSTITIRGYVRDNGCSVAAESTNFTVDLMENAAKQFNNIGATTPVVPFRILLSPCGNAVSAVKVGFTGVADSHNANLLALENTVSAASGLGIQLLNEQQNQIPLNAPSSALSWTTLTPGKPNTLNFYARLMATQVPVTAGHINATATFTLEYQ
- unfolding force (rupture of the β-strand interaction) [7]: 431 pN

B3: donor β-strand of FimF complementing FimG in the array polyprotein (I91)2-FimF-FimG-FimH-(I91)2 (peptide)
chain: B2 chain
- unfolding force in force-ramp (rupture of the β-strand interaction) [8]: 261 pN
